From paper PMC6433275 (Nature structural & molecular biology, 2019)

Target: T1, E. coli MukB (E. coli, UniProt P22523 1-1486)
T1 sequence: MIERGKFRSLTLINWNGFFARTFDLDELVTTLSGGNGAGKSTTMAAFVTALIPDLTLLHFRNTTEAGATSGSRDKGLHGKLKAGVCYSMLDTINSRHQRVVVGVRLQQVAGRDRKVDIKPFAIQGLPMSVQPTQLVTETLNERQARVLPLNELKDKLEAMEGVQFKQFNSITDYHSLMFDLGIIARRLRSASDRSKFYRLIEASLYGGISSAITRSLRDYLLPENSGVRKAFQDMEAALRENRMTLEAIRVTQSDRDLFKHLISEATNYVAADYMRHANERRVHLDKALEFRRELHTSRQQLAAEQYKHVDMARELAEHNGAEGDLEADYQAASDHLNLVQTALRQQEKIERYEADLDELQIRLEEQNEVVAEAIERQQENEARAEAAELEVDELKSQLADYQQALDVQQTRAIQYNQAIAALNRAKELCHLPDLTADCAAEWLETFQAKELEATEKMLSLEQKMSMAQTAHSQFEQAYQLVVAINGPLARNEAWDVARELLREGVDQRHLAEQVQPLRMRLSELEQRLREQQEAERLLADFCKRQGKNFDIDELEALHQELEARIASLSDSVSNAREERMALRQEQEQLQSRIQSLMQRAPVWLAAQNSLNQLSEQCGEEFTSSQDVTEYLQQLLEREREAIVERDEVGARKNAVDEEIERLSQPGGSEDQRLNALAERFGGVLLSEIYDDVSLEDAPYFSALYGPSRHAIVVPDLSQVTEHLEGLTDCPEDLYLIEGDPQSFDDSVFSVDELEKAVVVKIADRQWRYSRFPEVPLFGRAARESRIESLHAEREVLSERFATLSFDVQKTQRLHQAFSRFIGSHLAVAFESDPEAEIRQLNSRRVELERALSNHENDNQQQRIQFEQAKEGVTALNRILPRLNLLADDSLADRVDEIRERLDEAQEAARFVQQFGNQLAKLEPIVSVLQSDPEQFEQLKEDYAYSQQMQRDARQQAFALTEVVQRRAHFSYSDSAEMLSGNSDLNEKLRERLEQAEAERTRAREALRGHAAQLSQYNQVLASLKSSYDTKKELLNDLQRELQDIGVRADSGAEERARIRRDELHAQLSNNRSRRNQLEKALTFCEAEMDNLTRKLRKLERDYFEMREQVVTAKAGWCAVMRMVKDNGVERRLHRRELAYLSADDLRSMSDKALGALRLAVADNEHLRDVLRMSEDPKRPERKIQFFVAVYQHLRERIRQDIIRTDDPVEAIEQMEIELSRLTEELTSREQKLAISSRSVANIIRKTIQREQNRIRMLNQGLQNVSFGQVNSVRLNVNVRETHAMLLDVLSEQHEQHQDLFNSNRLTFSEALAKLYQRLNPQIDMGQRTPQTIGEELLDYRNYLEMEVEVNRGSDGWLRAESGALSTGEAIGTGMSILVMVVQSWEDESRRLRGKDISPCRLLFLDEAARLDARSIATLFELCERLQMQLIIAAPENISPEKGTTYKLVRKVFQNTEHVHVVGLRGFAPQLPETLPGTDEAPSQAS
Experiment: SEC

binding result: binds
B1: E. coli MukEF complex (complex)
chain 1: MSSTNIEQVMPVKLAQALANPLFPALDSALRSGRHIGLDELDNHAFLMDFQEYLEEFYARYNVELIRAPEGFFYLRPRSTTLIPRSVLSELDMMVGKILCYLYLSPERLANEGIFTQQELYDELLTLADEAKLLKLVNNRSTGSDVDRQKLQEKVRSSLNRLRRLGMVWFMGHDSSKFRITESVFRFGADVRAGDDPREAQRRLIRDGEAMPIENHLQLNDETEENQPDSGEEE
chain 2: MSEFSQTVPELVAWARKNDFSISLPVDRLSFLLAVATLNGERLDGEMSEGELVDAFRHVSDAFEQTSETIGVRANNAINDMVRQRLLNRFTSEQAEGNAIYRLTPLGIGITDYYIRQREFSTLRLSMQLSIVAGELKRAADAAEEGGDEFHWHRNVYAPLKYSVAEIFDSIDLTQRLMDEQQQQVKDDIAQLLNKDWRAAISSCELLLSETSGTLRELQDTLEAAGDKLQANLLRIQDATMTHDDLHFVDRLVFDLQSKLDRIISWGQQSIDLWIGYDRHVHKFIRTAIDMDKNRVFAQRLRQSVQTYFDEPWALTYANADRLLDMRDEEMALRDEEVTGELPEDLEYEEFNEIREQLAAIIEEQLAVYKTRQVPLDLGLVVREYLSQYPRARHFDVARIVIDQAVRLGVAQADFTGLPAKWQPINDYGAKVQAHVIDKY
